{"source": "patent US20220025060A1", "key": {"[1]": {"molecular_target": "His-tagged human CD40 (h-CD40-his) recombinant protein (human) (UniProt P25942)", "sequence (P25942 21-193 limits assumed)": "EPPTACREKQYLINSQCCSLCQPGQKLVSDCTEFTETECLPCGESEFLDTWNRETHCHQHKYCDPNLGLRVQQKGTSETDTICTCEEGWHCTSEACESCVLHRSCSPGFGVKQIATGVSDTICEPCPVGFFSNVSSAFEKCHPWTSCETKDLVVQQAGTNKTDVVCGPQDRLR", "test": "ELISA, human CD40-his coated"}, "[2]": {"molecular_target": "His-tagged human CD40 (h-CD40-his) recombinant protein (human) (UniProt P25942)", "test": "ELISA, human CD40-his coated", "remark": "listed apart in the source"}, "[3]": {"molecular_target": "His-tagged rhesus monkey CD40 (rhesus-CD40-his) recombinant protein (rhesus monkey) (UniProt F6SNI1)", "test": "ELISA, Rhesus CD40-his coated"}, "[4]": {"molecular_target": "human CD40 on HEK-Blue CD40L cells (HEK293 cells stably transfected with human CD40 gene) (human) (UniProt P25942)", "sequence (P25942 21-277)": "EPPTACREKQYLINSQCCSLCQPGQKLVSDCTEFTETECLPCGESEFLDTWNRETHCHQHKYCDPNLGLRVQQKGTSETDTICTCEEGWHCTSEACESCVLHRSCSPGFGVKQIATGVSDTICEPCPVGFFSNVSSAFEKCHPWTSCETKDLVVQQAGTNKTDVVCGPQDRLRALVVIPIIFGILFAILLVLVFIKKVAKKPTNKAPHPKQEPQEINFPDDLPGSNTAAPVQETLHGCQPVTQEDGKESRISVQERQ", "test": "HEK293-CD40 cell-binding (so in the source)"}, "[5]": {"molecular_target": "human CD40 on HEK-Blue CD40L cells (HEK293 cells stably transfected with human CD40 gene) (human) (UniProt P25942)", "test": "HEK293-CD40 cell-binding (so in the source)", "remark": "listed apart in the source"}, "[6]": {"molecular_target": "Fc-tagged human CD40 (h-CD40-Fc) recombinant protein (human) (UniProt P25942)", "sequence (P25942 21-193 limits assumed)": "as the sequence (P25942 21-193 limits assumed) above", "test": "hCD40/hCD40L blocking ELISA, competitor CD40L-his"}, "[7]": {"molecular_target": "Fc-tagged human CD40 (h-CD40-Fc) recombinant protein (human) (UniProt P25942)", "test": "hCD40/hCD40L blocking ELISA, competitor CD40L-his", "remark": "listed apart in the source"}, "[8]": {"molecular_target": "His-tagged human CD40 (h-CD40-his) recombinant protein (human) (UniProt P25942)", "test": "Biacore SPR, antibody captured by anti-human antibody, CD40 antigen as analyte, 1:1 model"}}, "note": "Read-outs that look alike come from different tables or passages of the source.", "data": [{"substance": "Alligator control (hIgG1) (antibody)", "values": [{"measurement": "EC50", "setting": "[1]", "value": 3.29, "unit": "ng/mL"}, {"measurement": "EC50", "setting": "[2]", "value": 1.29, "unit": "ng/mL"}, {"measurement": "EC50", "setting": "[3]", "value": 1.24, "unit": "ng/mL"}, {"measurement": "EC50", "setting": "[4]", "value": 396, "unit": "ng/mL"}, {"measurement": "EC50", "setting": "[5]", "value": 1360, "unit": "ng/mL"}, {"measurement": "IC50", "setting": "[6]", "value": 723, "unit": "ng/mL"}, {"measurement": "IC50", "setting": "[7]", "value": 647, "unit": "ng/mL"}, {"measurement": "Kd", "setting": "[8]", "value": 166, "unit": "nM"}]}, {"substance": "Pfizer control (hIgG4) (antibody)", "values": [{"measurement": "EC50", "setting": "[1]", "value": 5.63, "unit": "ng/mL"}, {"measurement": "EC50", "setting": "[2]", "value": 3.98, "unit": "ng/mL"}, {"measurement": "EC50", "setting": "[3]", "value": 3.56, "unit": "ng/mL"}, {"measurement": "Kd", "setting": "[8]", "value": 20.4, "unit": "nM"}]}]}
